Source: article PMC6242907, “Molecular basis of maintaining an oxidizing environment under anaerobiosis by soluble fumarate reductase” (Nature Communications, 2018)

Assays:
Assay in all cases: purified protein
Type in all cases: biochemical, Saccharomyces cerevisiae
purified protein [1] = substrate: Cc1cc2c(cc1C)N(C[C@H](O)[C@H](O)[C@H](O)CO)c1[nH]c(=O)[nH]c(=O)c1N2; conditions: printed as riboflavin, reduced in situ by excess sodium dithionite; fumarate as acceptor, anaerobic, PBS, 1 mM EDTA
purified protein [2] = substrate: Cc1cc2c(cc1C)N(C[C@H](O)[C@H](O)[C@H](O)COP(=O)(O)OP(=O)(O)OC[C@H]1O[C@@H](n3cnc4c(N)ncnc43)[C@H](O)[C@@H]1O)c1[nH]c(=O)[nH]c(=O)c1N2; conditions: printed as FAD, reduced in situ by excess sodium dithionite; fumarate as acceptor, anaerobic, PBS, 1 mM EDTA
purified protein [3] = substrate: Cc1cc2c(cc1C)N(C[C@H](O)[C@H](O)[C@H](O)COP(=O)(O)O)c1[nH]c(=O)[nH]c(=O)c1N2; conditions: printed as FMN, reduced in situ by excess sodium dithionite; fumarate as acceptor, anaerobic, PBS, 1 mM EDTA

B1: Osm1 (Saccharomyces cerevisiae S288C) (protein)
chain: SMKQPVVVIGSGLAGLTTSNRLISKYRIPVVLLDKAASIGGNSIKASSGINGAHTDTQQNLKVMDTPELFLKDTLHSAKGRGVPSLMDKLTKESKSAIRWLQTEFDLKLDLLAQLGGHSVPRTHRSSGKLPPGFEIVQALSKKLKDISSKDSNLVQIMLNSEVVDIELDNQGHVTGVVYMDENGNRKIMKSHHVVFCSGGFGYSKEMLKEYSPNLIHLPTTNGKQTTGDGQKILSKLGAELIDMDQVQVHPTGFIDPNDRENNWKFLAAEALRGLGGILLHPTTGRRFTNELSTRDTVTMEIQSKCPKNDNRALLVMSDKVYENYTNNINFYMSKNLIKKVSINDLIRQYDLQTTASELVTELKSYSDVNTKDTFDRPLIINAFDKDISTESTVYVGEVTPVVHFTMGGVKINEKSQVIKKNSESVLSNGIFAAGEVSGGVHGANRLGGSSLLECVVFGKTAADNIAKLY
notes: residues 32-501, N-terminal His6 tag and thrombin site in pET28a, E. coli BL21(DE3); tag removed by trypsin for crystals
- Km (purified protein [1]): 9.3745 (±4.991) µM
- Km (purified protein [2]): 2.858 µM
- Km (purified protein [3]): 5.847 (±2.0065) µM
